Like-named read-outs stand apart in the source and are kept apart here.
Experiments:
[1] = molecular target: T1, tubulin heterodimer (bovine tubulin) (bovine, UniProt Q6B856 1-445); assay: pull-down
[2] = molecular target: T1, tubulin heterodimer (bovine tubulin); assay: pull-down; remark: listed apart in the source

- koff [1]: 0.0025 s⁻¹
- koff [2]: 0.01 s⁻¹
B1: Op18-wt-F (oncoprotein 18/stathmin, wild type, COOH-terminal Flag epitope) (natural protein, human, UniProt P16949 1-149, looked up)
chain: MASSDIQVKELEKRASGQAFELILSPRSKESVPEFPLSPPKKKDLSLEEIQKKLEAAEERRKSHEAEVLKQLAEKREHEKEVLQKAIEENNNFSKMAEEKLTHKMEANKENREAQMAAKLERLREKDKHIEEVRKNKESKDPADETEAD

Source: paper PMC2156119 (The Journal of Cell Biology, 1999)
